Results from article PMC5787828, “NAC transcription factor JUNGBRUNNEN1 enhances drought tolerance in tomato”.

T1: AtJUB1-GST (Arabidopsis thaliana, UniProt Q9SK55 1-275)
T1 sequence: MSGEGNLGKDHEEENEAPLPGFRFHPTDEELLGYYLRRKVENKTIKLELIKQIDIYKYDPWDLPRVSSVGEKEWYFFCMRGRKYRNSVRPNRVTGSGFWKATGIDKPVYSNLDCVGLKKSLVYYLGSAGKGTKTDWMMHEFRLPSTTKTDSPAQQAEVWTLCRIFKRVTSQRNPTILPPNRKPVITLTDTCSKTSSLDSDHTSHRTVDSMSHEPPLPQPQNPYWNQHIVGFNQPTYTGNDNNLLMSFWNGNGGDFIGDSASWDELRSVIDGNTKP

B1: SlDELLA promoter probe (dsDNA)
DNA 1: ATTTTTCACACTTGACCACCACCACTTTTACTTGCCCTACTAAATCTAAA
DNA 2: TTTAGATTTAGTAGGGCAAGTAAAAGTGGTGGTGGTCAAGTGTGAAAAAT
B2: SlDREB2 promoter probe (dsDNA)
DNA 1: TATATGGCTGTGCTTGATCGAACTTCAAATATGATGTTACCTATGGATTA
DNA 2: TAATCCATAGGTAACATCATATTTGAAGTTCGATCAAGCACAGCCATATA
B3: SlDREB1 promoter probe (dsDNA)
DNA 1: TTATTTAGTCGAGTCGTGGCTGTTGGGATGCCGCGGAATTCAGCACGTG
DNA 2: CACGTGCTGAATTCCGCGGCATCCCAACAGCCACGACTCGACTAAATAA

target: T1, AtJUB1-GST; test: EMSA; abolished by 100x unlabelled competitor; Odyssey Infrared EMSA kit (LI-COR); buffer, salt, pH and temperature not stated; details: protein: recombinant; tags: GST (pDEST24 fusion); chain copies: 2; label: 5'-DY682; blunt

Row | Binder | binding result
1 | B1 | binds
2 | B2 | binds
3 | B3 | binds
